From patent US20190359693A1

Tests used:
[1] = molecular target: HA of H1N1 A/New Caledonia/20/1999 (influenza A virus); test: BLI steady state
[2] = molecular target: HA of B/Brisbane/60/2008 (Victoria) (influenza B virus); test: cell-based or functional assay
[3] = molecular target: HA of B/Florida/04/2006 (Yamagata) (influenza B virus); test: cell-based or functional assay
[4] = molecular target: HA of H1N1 A/New Caledonia/20/1999 (influenza A virus); test: cell-based or functional assay
[5] = molecular target: HA of H1N1 A/Puerto Rico/8/34-MA (influenza A virus); test: cell-based or functional assay
[6] = molecular target: HA of H3N2 A/Brisbane/10/2007 (influenza A virus); test: cell-based or functional assay
[7] = molecular target: HA of H5N1 A/PR8 H5N1 HK97 (influenza A virus); test: cell-based or functional assay
[8] = molecular target: HA of H5N1 A/Vietnam/1194/04 (influenza A virus); test: cell-based or functional assay
[9] = molecular target: HA of H7N3 A/NIBRG/60 (A/mallard/NL/12/00) (influenza A virus); test: cell-based or functional assay
[10] = molecular target: hemagglutinin (HA) of influenza virus B/Brisbane/60/08 (Victoria) (influenza B virus); test: cell-based or functional assay
[11] = molecular target: hemagglutinin (HA) of influenza virus B/Florida/04/06 (Yamagata) (influenza B virus); test: cell-based or functional assay
[12] = molecular target: hemagglutinin (HA) of influenza virus B/Lee/40 (Old) (influenza B virus) (UniProt P03460); test: cell-based or functional assay
[13] = molecular target: recombinant HA of B/Brisbane/60/08 (Victoria) (influenza B virus); test: biolayer interferometry (Octet), steady-state fit, geometric mean, pH 7.4
[14] = molecular target: recombinant HA of B/Florida/04/06 (Yamagata) (influenza B virus); test: as above
[15] = molecular target: hemagglutinin (HA) of influenza B/Florida/04/06 (Yamagata) (influenza B virus); test: cell-based or functional assay
[16] = molecular target: hemagglutinin (HA) of influenza B/Harbin/7/94 (Yamagata) (influenza B virus); test: cell-based or functional assay
[17] = molecular target: hemagglutinin (HA) of influenza B/Lee/40 (Old) (influenza B virus) (UniProt P03460); test: cell-based or functional assay
[18] = molecular target: hemagglutinin (HA) of influenza B/Malaysia/2506/04 (Victoria) (influenza B virus); test: cell-based or functional assay
[19] = molecular target: hemagglutinin (HA) of influenza B/Massachusetts/02/12 (Yamagata) (influenza B virus); test: cell-based or functional assay
[20] = molecular target: HA of H3N2 A/Brisbane/10/2007 (influenza A virus); test: AlphaLISA competition vs 39.29
[21] = molecular target: HA of B/Brisbane/60/2008 (Victoria) (influenza B virus); test: AlphaLISA competition vs CR9114
[22] = molecular target: HA of B/Florida/04/2006 (Yamagata) (influenza B virus); test: AlphaLISA competition vs CR9114
[23] = molecular target: HA of H3N2 A/Brisbane/10/2007 (influenza A virus); test: AlphaLISA competition vs CR9114
[24] = molecular target: HA of H3N2 A/Brisbane/10/2007 (influenza A virus); test: AlphaLISA competition vs SD1036
[25] = molecular target: HA of H3N2 A/Brisbane/10/2007 (influenza A virus); test: AlphaLISA competition vs SD1038
[26] = molecular target: HA of B/Florida/04/2006 (Yamagata) (influenza B virus); test: AlphaLISA competition vs CR8033
[27] = molecular target: HA of B/Brisbane/60/2008 (Victoria) (influenza B virus); test: AlphaLISA competition vs CR8071
[28] = molecular target: hemagglutinin (HA) of influenza virus H1N1 A/Puerto Rico/8/34-MA (influenza A virus); test: cell-based or functional assay
[29] = molecular target: hemagglutinin (HA) of influenza virus H3N2 A/HK/1/68-MA (influenza A virus); test: cell-based or functional assay
[30] = molecular target: hemagglutinin (HA) of influenza virus H5N1 A/Vietnam/1194/04 (influenza A virus); test: cell-based or functional assay
[31] = molecular target: hemagglutinin (HA) of influenza virus H6N1 A/Taiwan/2/2013 (influenza A virus); test: cell-based or functional assay
[32] = molecular target: hemagglutinin (HA) of influenza virus H7N3 A/NIBRG/60 (A/mallard/Netherlands/12/00) (influenza A virus); test: cell-based or functional assay
[33] = molecular target: HA of B/Florida/04/2006 (Yamagata) (influenza B virus); test: AlphaLISA competition vs CR8071
[34] = molecular target: HA of H3N2 A/Brisbane/10/2007 (influenza A virus); test: BLI steady state
[35] = molecular target: HA of H7N3 A/NIBRG/60 (A/mallard/NL/12/00) (influenza A virus); test: BLI steady state
[36] = molecular target: HA of H1N1 A/Brisbane/59/07 (influenza A virus); test: cell-based or functional assay
[37] = molecular target: hemagglutinin (HA) of influenza A/Brisbane/10/07 (H3N2) (influenza A virus A/Brisbane/10/07 (H3N2)); test: cell-based or functional assay
[38] = molecular target: hemagglutinin (HA) of influenza A/New York/107/03 (PR8) (influenza A virus A/New York/107/03 (PR8)); test: cell-based or functional assay
[39] = molecular target: hemagglutinin (HA) of influenza A/chicken/Germany/n/49 (H10N7) (influenza A virus A/chicken/Germany/n/49 (H10N7)); test: cell-based or functional assay
[40] = molecular target: hemagglutinin (HA) of influenza A/waterfowl/Hong Kong/MPA892/06 (H4) (influenza A virus A/waterfowl/Hong Kong/MPA892/06 (H4)); test: cell-based or functional assay
[41] = molecular target: HA of H3N2 A/Brisbane/10/2007 (influenza A virus); test: AlphaLISA competition vs CR8020
[42] = molecular target: HA of H3N2 A/Brisbane/10/2007 (influenza A virus); test: AlphaLISA competition vs CR8057

B1: SD1045 (VHH)
VHH: EVQLVESGGGLVQAGGSLRLSCAASGSSFSINVMGWYRQAPGKQREMVATITYGGSTNYVDSVKGRFTISRDNAKNTVYLQMNSLKPEDTAVYYCNSRLAQINYWGQGTQVTVSS
B1 was tested, and the Kd [1] was 5 nM, the VNA titer [2] was > 1000 nM and the VNA titer [3] was > 1000 nM. The VNA titer [4] was 166 nM, the VNA titer [5] was 206 nM and the VNA titer [6] was 641 nM. The VNA titer [7] was 117 nM, the VNA titer [8] was 63.5 nM and the VNA titer [9] was > 1000 nM.

B2: MD1221 (VHH)
chain: EVQLVESGGGLVQPGGSLRLSCAATGFTLENKAIGWFRQTPGSEREGVLCISKSGSWTYYTDSMRGRFTISRDNAENTVYLQMDSLKPEDTAVYYCATTTAGGGLCWDGTTFSRLASSWGQGTQVTVSSAAAGGGGSGGGGSGGGGSGGGGSGGGGSGGGGSGGGGSEVQLVESGGGLVQPGGSLRLSCAATGFTLENKAIGWFRQTPGSEREGVLCISKSGSWTYYTDSMRGRFTISRDNAENTVYLQMDSLKPEDTAVYYCATTTAGGGLCWDGTTFSRLASSWGQGTQVTVSS
B2 gave a neutralization titer [10] of 23.4 nM, a neutralization titer [11] of 76.4 nM and a neutralization titer [12] of 32.5 nM. The Kd [13] was 1.7 nM and the Kd [14] was 1.9 nM.

B3: SD1087 (VHH)
VHH: EVQLVESGGGLVQPGGSLRLSCVISGLSLDTYAVGWFRQAPGKEREGITCISSGHGMTYYADSVKGRFTVSTDNAKNTVYLQMNGLQPEDTARYYCATESRYYCSDNWPAPQRYIYWGQGTQVTVSS
B3 was tested, and the VNA titer [2] was 10.2 nM, the hemagglutination inhibition titer [2] was > 50 µg/mL and the VNA titer [3] was > 1000 nM. The hemagglutination inhibition titer [3] was > 50 µg/mL, the VNA IC50 [15] was > 1000 nM and the VNA IC50 [16] was > 1000 nM. It also gave a VNA IC50 [17] of 22 nM, a VNA IC50 [18] of 59 nM and a VNA IC50 [19] of 1000 nM. For the same binder, the pIC50 [20] was < 7, the pIC50 [21] was 7.5 and the pIC50 [22] was 8.8. For the same binder, the pIC50 [23] was < 7, the pIC50 [24] was < 7 and the pIC50 [25] was < 7. For the same binder, the pIC50 [26] was < 7 and the pIC50 [27] was < 7.

B4: MD2401 (protein)
chain: EVQLVESGGGLVQPGGSLRLSCAVSISIFDIYAMDWYRQAPGKQRDLVATSFRDGSTNYADSVKGRFTISRDNAKNTLYLQMNSLKPEDTAVYLCHVSLYRDPLGVAGGMGVYWGKGALVTVSSAAAGGGGSGGGGSGGGGSGGGGSGGGGSGGGGSGGGGSEVQLVESGGGLVQAGGSLKLSCAASGRTYAMGWFRQAPGKEREFVAHINALGTRTYYSDSVKGRFTISRDNAKNTEYLEMNNLKPEDTAVYYCTAQGQWRAAPVAVAAEYEFWGQGTQVTVSSLINLEGGGGSGGGGSGGGGSGGGGSGGGGSGGGGSGGGGSPAGEVQLVESGGGLVQPGGSLRLSCAATGFTLENKAIGWFRQTPGSEREGVLCISKSGSWTYYTDSMRGRFTISRDNAENTVYLQMDSLKPEDTAVYYCATTTAGGGLCWDGTTFSRLASSWGQGTQVTVSSAAAGGGGSGGGGSGGGGSGGGGSGGGGSGGGGSGGGGSEVQLVESGGGLVQPGGSLRLSCAATGFTLENKAIGWFRQTPGSEREGVLCISKSGSWTYYTDSMRGRFTISRDNAENTVYLQMDSLKPEDTAVYYCATTTAGGGLCWDGTTFSRLASSWGQGTQVTVSS
In the case of B4, the average neutralization titer [11] is reported as 277 nM, the average neutralization titer [12] is reported as 165 nM and the average neutralization titer [28] is reported as 14.7 nM. It also gave an average neutralization titer [29] of 27.7 nM, an average neutralization titer [30] of 27.7 nM and an average neutralization titer [31] of 36.3 nM. For the same binder, the average neutralization titer [32] was 27.7 nM.

B5: SD1086 (VHH)
VHH: EVQLVESGGGLVQAGGSLRLSCTASGSISSIDYMRWYRQYPGKHRELVATITSGGAADSRDSVKGRFTVSRGNAANTMYLQMNNLKPEDTAVYYCNAYGLEIGAHWGRGTQVTVSS
B5 was tested, and the VNA titer [2] was 827 nM, the VNA titer [3] was > 1000 nM and the pIC50 [21] was 8.6. For the same binder, the pIC50 [22] was 8, the pIC50 [26] was < 7 and the pIC50 [27] was < 7. For the same binder, the pIC50 [33] was < 7.

B6: SD1046 (VHH)
VHH: EVQLVESGGGLVQAGDSLRISCAASGRTLSIYSMGWFRQAPGKEREFVATIGWNSGRTFYPDSLKGRFTISRDNARNTLYLQMNNLRPEDTAVYYCAAAKGPLRLSSQADYWGQGTQVTVSS
B6 was tested, and the Kd [34] was 2 nM, the Kd [35] was 3 nM and the VNA titer [2] was > 1000 nM. For the same binder, the VNA titer [3] was > 1000 nM, the VNA titer [36] was > 1000 nM and the VNA titer [4] was > 1000 nM. The VNA titer [6] was 6.6 nM, the VNA titer [8] was > 1000 nM and the VNA titer [9] was 26.4 nM. For the same binder, the VNA IC50 [37] was 5 nM, the VNA IC50 [38] was 34 nM and the VNA IC50 [39] was 13 nM. For the same binder, the VNA IC50 [40] was 3 nM, the pIC50 [41] was 9.6 and the pIC50 [42] was < 7. For the same binder, the pIC50 [23] was 9.9.
